Measurements: paper PMC7641746 (Nucleic Acids Research, 2020)

Legend:
VDR;RXRα ΔNTD = VDR;RXRα ΔNTD (Homo sapiens;Homo sapiens, UniProt P11473;P19793 1-427;130-462, |); test: ITC
[1] = target: VDR;RXRα ΔNTD;MED1 (50-660) (Homo sapiens;Homo sapiens;Homo sapiens, UniProt P11473;P19793;Q15648 1-427;130-462;50-660, ||); test: SEC-MALLS
MED1 (50–660) = MED1 (50–660) (human, UniProt Q15648 50-660); test: HDX-MS
Sequence of MED1 (50–660) (Q15648 50-660): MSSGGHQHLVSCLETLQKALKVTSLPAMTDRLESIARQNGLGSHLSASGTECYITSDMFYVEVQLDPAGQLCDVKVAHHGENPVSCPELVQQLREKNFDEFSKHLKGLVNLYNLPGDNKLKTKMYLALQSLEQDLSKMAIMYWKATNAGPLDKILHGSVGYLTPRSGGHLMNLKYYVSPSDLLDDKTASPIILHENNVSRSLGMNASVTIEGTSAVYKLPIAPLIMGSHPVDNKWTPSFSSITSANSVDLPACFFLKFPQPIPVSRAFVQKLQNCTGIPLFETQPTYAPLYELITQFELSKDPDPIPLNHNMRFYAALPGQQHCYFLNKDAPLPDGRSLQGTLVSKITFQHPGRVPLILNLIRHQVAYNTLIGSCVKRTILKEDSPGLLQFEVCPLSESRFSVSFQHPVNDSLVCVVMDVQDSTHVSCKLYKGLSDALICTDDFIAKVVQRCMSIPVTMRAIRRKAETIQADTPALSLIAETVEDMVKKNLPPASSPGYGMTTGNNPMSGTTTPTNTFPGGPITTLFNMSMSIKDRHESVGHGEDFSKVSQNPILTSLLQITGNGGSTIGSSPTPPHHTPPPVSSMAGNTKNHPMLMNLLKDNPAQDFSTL

Sequence of VDR;RXRα ΔNTD;MED1 (50-660) (Q15648 50-660, stated change not applied, one chain of several): as the sequence (Q15648 50-660) above

Binder | binding result (VDR;RXRα ΔNTD) | binding result [1] | binding result (MED1 (50–660))
rat Nppa (rANF1) DR3 VDRE (dsDNA) DNA 1: AGAGGTCATGAAGGACATT DNA 2: AATGTCCTTCATGACCTCT | binds | binds | 
HsRXRαΔNTD (130–462) (receptor) FTKHICAICGDRSSGKHYGVYSCEGCKGFFKRTVRKDLTYTCRDNKDCLIDKRQRNRCQYCRYQKCLAMGMKREAVQEERQRGKDRNENEVESTSSANEDMPVERILEAELAVEPKTETYVEANMGLNPSSPNDPVTNICQAADKQLFTLVEWAKRIPHFSELPLDDQVILLRAGWNELLIASFSHRSIAVKDGILLATGLHVHRNSAHSAGVGAIFDRVLTELVSKMRDMQMDKTELGCLRAIVLFNPDSKGLSNPAEVEALREKVYASLEAYCKHKYPEQPGRFAKLLLRLPALRSIGLKCLEHLFFFKLIGDTPIDTFLMEMLEAPHQMT |  |  | binds
full-length HsVDR (1–427) (receptor) MEAMAASTSLPDPGDFDRNVPRICGVCGDRATGFHFNAMTCEGCKGFFRRSMKRKALFTCPFNGDCRITKDNRRHCQACRLKRCVDIGMMKEFILTDEEVQRKREMILKRKEEEALKDSLRPKLSEEQQRIIAILLDAHHKTYDPTYSDFCQFRPPVRVNDGGGSHPSRPNSRHTPSFSGDSSSSCSDHCITSSDMMDSSSFSNLDLSEEDSDDPSVTLELSQLSMLPHLADLVSYSIQKVIGFAKMIPGFRDLTSEDQIVLLKSSAIEVIMLRSNESFTMDDMSWTCGNQDYKYRVSDVTKAGHSLELIEPLIKFQVGLKKLNLHEEEHVLLMAICIVSPDRPGVQDAALIEAIQDRLSNTLQTYIRCRHPPPGSHLLYAKMIQKLADLRSLNEEHSKQYRCLSFQPECSMKLTPLVLEVFGNEIS |  |  | binds
